Measured values: patent US20140112926A1

Experiments:
[1] = molecular target: GST-tagged version of human FcγRIIIA (human) (UniProt P08637); assay: AlphaLISA vs biotin-huIgG, supernatant, round 1
[2] = molecular target: GST-tagged version of human FcγRIIIA (human) (UniProt P08637); assay: AlphaLISA vs biotin-huIgG, supernatant, round 2
[3] = molecular target: GST-tagged version of human FcγRIIIA (human) (UniProt P08637); assay: AlphaLISA vs biotin-huIgG, supernatant, round 3

GST-tagged version of human FcγRIIIA (human), sequence (P08637 17-208 limits assumed): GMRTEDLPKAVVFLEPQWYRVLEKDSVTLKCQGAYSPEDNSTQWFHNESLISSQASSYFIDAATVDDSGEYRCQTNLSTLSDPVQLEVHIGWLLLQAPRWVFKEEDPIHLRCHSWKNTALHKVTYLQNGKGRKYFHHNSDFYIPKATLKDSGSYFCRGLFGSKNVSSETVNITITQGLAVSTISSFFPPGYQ

% inhibition [1] [%]	Alpha signal [1]	% inhibition [2] [%]	Alpha signal [2]	% inhibition [3] [%]	Alpha signal [3]	Substance
47.5	39900	58.4	33500	67.6	25500	scFv-Fc/Fc, A287F in scFv-Fc (from UniProt P0DOX5 218-449; P0DOX5 218-449) (Fc fusion)
27.1	55400	36.6	51000	26.2	58000	scFv-Fc/Fc, A330M in scFv-Fc (Fc fusion)
25.8	56400	32.7	54100	25.6	58400	scFv-Fc/Fc, A330V in dummy Fc (Fc fusion)
25.8	56400	27.3	58400	36.6	49800	scFv-Fc/Fc, A339T in dummy Fc (Fc fusion)
20.6	60300	28	57900	21.6	61600	scFv-Fc/Fc, E258S in dummy Fc (Fc fusion)
69.3	23300	75.8	19500	71.5	22400	scFv-Fc/Fc, E258V in scFv-Fc (from UniProt P0DOX5 218-449; P0DOX5 218-449) (Fc fusion)
–	30100	–	35400	–	32200	scFv-Fc/Fc, E294L in dummy Fc (Fc fusion)
–	24300	–	22900	76.8	18200	scFv-Fc/Fc, E294L in scFv-Fc (Fc fusion)
60.8	29800	–	25800	–	23800	scFv-Fc/Fc, F243I in dummy Fc (Fc fusion)
60.6	30000	73.1	21700	72.8	21400	scFv-Fc/Fc, F243I in scFv-Fc (Fc fusion)
72.9	20600	77.4	18200	76.1	18800	scFv-Fc/Fc, F243L in dummy Fc (Fc fusion)
39.4	–	28.6	57400	29.7	55200	scFv-Fc/Fc, F243L in scFv-Fc (Fc fusion)
43.3	43100	53.1	37700	58.7	32400	scFv-Fc/Fc, F243M in dummy Fc (Fc fusion)
84.8	11600	83	13700	84.1	12500	scFv-Fc/Fc, F243V + S239T in dummy Fc (Fc fusion)
49	38800	60.1	32100	62.8	29300	scFv-Fc/Fc, F243V in dummy Fc (Fc fusion)
45.1	41700	47.7	42100	48.6	40400	scFv-Fc/Fc, F243V in scFv-Fc (Fc fusion)
15	64600	23.2	61700	20.9	62200	scFv-Fc/Fc, G236Y in scFv-Fc (Fc fusion)

% inhibition [1] [%]	Alpha signal [1]	% inhibition [2] [%]	Alpha signal [2]	% inhibition [3] [%]	Alpha signal [3]	Substance
–	54800	–	56600	–	57100	scFv-Fc/Fc, H268E in scFv-Fc (from UniProt P0DOX5 218-449; P0DOX5 218-449) (Fc fusion)
20.2	60600	22.6	62200	21.6	61600	scFv-Fc/Fc, H268K in scFv-Fc (from UniProt P0DOX5 218-449; P0DOX5 218-449) (Fc fusion)
24.5	57400	35.2	52100	34.7	51300	scFv-Fc/Fc, I253K in scFv-Fc (Fc fusion)
23	58500	23.5	61500	25.7	58400	scFv-Fc/Fc, I253V in dummy Fc (Fc fusion)
85.8	10800	87.7	9880	85.3	11500	scFv-Fc/Fc, I332E in dummy Fc (Fc fusion)
75.1	18900	74.6	20400	76.5	18400	scFv-Fc/Fc, I332E in scFv-Fc (Fc fusion)
22.4	58900	22.2	62600	32.1	53300	scFv-Fc/Fc, K246E in dummy Fc (Fc fusion)
40.6	45100	47.3	42400	51.8	37900	scFv-Fc/Fc, K246S in dummy Fc (Fc fusion)
–	43800	–	44500	–	42800	scFv-Fc/Fc, K246V in dummy Fc (Fc fusion)
20	60800	29	57100	34.2	51700	scFv-Fc/Fc, K246W in dummy Fc (Fc fusion)
67.5	24700	71.3	23100	68.4	24800	scFv-Fc/Fc, K248L in dummy Fc (Fc fusion)
31.5	52100	36.5	51000	40.2	47000	scFv-Fc/Fc, K248Y in dummy Fc (Fc fusion)
25.8	56400	–	57500	–	57300	scFv-Fc/Fc, K288I in scFv-Fc (from UniProt P0DOX5 218-449; P0DOX5 218-449) (Fc fusion)
26.7	55700	–	53100	–	50300	scFv-Fc/Fc, K288T in dummy Fc (Fc fusion)
23.1	58500	31.1	55400	23.5	60100	scFv-Fc/Fc, K290F in dummy Fc (Fc fusion)
–	32500	–	–	51	–	scFv-Fc/Fc, T307G in scFv-Fc (Fc fusion)
